Reference: US6734169B2, “Apolipoprotein A-I agonists and their use to treat dyslipidemic disorders” (priority 1997, dated 2004)

Molecular target: T1, LCAT (purified from human plasma) (Homo sapiens, UniProt P04180)
T1 construct: The reaction is initiated by addition of LCAT (purified from human plasma); from tissue
T1 sequence (P04180 25-440): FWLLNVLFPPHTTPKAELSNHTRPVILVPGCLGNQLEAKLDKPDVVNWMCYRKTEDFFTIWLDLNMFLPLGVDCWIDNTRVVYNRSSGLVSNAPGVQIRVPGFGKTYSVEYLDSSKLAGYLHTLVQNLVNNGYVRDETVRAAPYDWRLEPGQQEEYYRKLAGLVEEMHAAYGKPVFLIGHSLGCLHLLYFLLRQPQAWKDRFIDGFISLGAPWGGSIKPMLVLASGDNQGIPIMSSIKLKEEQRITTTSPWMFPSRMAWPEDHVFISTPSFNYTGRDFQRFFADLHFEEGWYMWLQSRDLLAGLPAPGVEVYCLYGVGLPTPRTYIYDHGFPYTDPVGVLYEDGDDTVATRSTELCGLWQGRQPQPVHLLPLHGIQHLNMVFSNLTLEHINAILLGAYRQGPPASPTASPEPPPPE
Test: LCAT activation assay
Assay type: biochemical
Conditions: LCAT activation as compared with native human ApoA-I (=100%); equivalent masses of peptide or ApoA-I; SUVs of EPC or POPC and radiolabelled cholesterol; listed as peptide 18AM4
Method: The peptides synthesized as described in Section 6, supra, were analyzed in vitro for their ability to activate LCAT. In the LCAT assay, substrate vesicles (small unilamellar vesicles or “SUVs”) composed of egg phophatidylcholine (EPC) or 1-Palmitoyl-2-oleyl-phosphatidylcholine (POPC) and radiolabelled cholesterol are preincubated with equivalent masses either of peptide or ApoA-I (isolated from human plasma). The reaction is initiated by addition of LCAT (purified from human plasma). Native ApoA-I, which was used as positive control, represents 100% activation activity. “Specific activity” (i.e., units of activity (LCAT activation)/unit of mass) of the peptides can be calculated as the concentration of peptide that achieves maximum LCAT activation. For example, a series of concentrations of the peptide (e.g., a limiting dilution) can be assayed to determine the “specific activity” for the peptide—the concentration which achieves maximal LCAT activation (i.e., percentage conversion of cholesterol to cholesterol ester) at a specific timepoint in the assay (e.g., 1 hr.). When plotting percentage conversion of cholesterol at, e.c., 1 hr., against the concentration of peptide used, the “specific activity” can be identified as the concentration of peptide that achieves a plateau on the plotted curve. […]

## EWLEAFYKKVLEKLKELF [peptide 246]
  ACTIVITY (%) LCAT: less than 4%
